B1: hmL42人源化亲和力成熟变体 R3G4 (antibody, V domains shown)
VH: QVQLVQSGAEVKKPGASVKVSCKASGYTFTDYEVHWVKQAPGQGLEWMGAIHPGSGGAAYNQKVKGKVTMTADTSISTAYMELSRLRSDDTAVYYCTSYGWNDWGQGTTVTVS
VL: DIQLTQSPSFLSASVGDRVTITCKASQDVSTAVAWYQQKPGKSPKLLISWASTRHTGVPDRFAGSGSGTDFTLTISSLQPEDFATYYCQQYIDFPFVFGQGTKLEIK
B2: hmL42人源化亲和力成熟变体 R2G10 (antibody, V domains shown)
VH: B1 VH
VL: B1 VL with I92W, D93E, P95S, V97T
B3: hmL42人源化亲和力成熟变体 R3D4 (antibody, V domains shown)
VH: B1 VH
VL: B1 VL with I92N, D93V, P95A, V97T
B4: hmL42人源化亲和力成熟变体 R2 (antibody, V domains shown)
VH: B1 VH
VL: B1 VL with Q89M, Q90G, I92L, D93F, F96Y, V97T
B5: hmL42人源化亲和力成熟变体 R2D12 (antibody, V domains shown)
VH: B1 VH
VL: B1 VL with I92M, D93S, P95A, V97T
B6: hmL42人源化亲和力成熟变体 R3B6 (antibody, V domains shown)
VH: B1 VH
VL: B1 VL with I92L, D93S, V97M
B7: hmL42人源化亲和力成熟变体 R2A8 (antibody, V domains shown)
VH: B1 VH
VL: B1 VL with Q89M, Q90G, I92W, D93V, F96Y, V97T
B8: hmL42人源化亲和力成熟变体 R2B11 (antibody, V domains shown)
VH: B1 VH
VL: B1 VL with I92V, D93V, P95S, F96Y, V97S
B9: hmL42人源化亲和力成熟变体 R3H5 (antibody, V domains shown)
VH: B1 VH
VL: B1 VL with I92W, D93V, P95S, V97T
B10: hmL42人源化亲和力成熟变体 R3G5 (antibody, V domains shown)
VH: B1 VH
VL: B1 VL with I92V, D93M, V97T
B11: hmL42人源化亲和力成熟变体 R2C9 (antibody, V domains shown)
VH: B1 VH
VL: B1 VL with Q89M, Q90S, I92V, D93V, F96Y, V97T
B12: hmL42人源化亲和力成熟变体 R2E8 (antibody, V domains shown)
VH: B1 VH
VL: B1 VL with Q89H, D93M, F96Y, V97T
B13: hmL42人源化亲和力成熟变体 R3C5 (antibody, V domains shown)
VH: B1 VH
VL: B1 VL with I92W, D93V, F94W, P95D, F96Y
B14: hmL42人源化亲和力成熟变体 R2H11 (antibody, V domains shown)
VH: B1 VH
VL: B1 VL with I92Y, D93S, F94W, P95S, F96Y, V97T
B15: hmL42人源化亲和力成熟变体 R3G6 (antibody, V domains shown)
VH: B1 VH
VL: B1 VL with I92V, V97K
B16: hmL42人源化亲和力成熟变体 R3C4 (antibody, V domains shown)
VH: B1 VH
VL: B1 VL with I92V, D93A, P95S, V97T
B17: hmL42人源化亲和力成熟变体 R3B5 (antibody, V domains shown)
VH: B1 VH
VL: B1 VL with I92V, D93R, P95S, F96Y, V97T
B18: hmL42人源化亲和力成熟变体 R3H9 (antibody, V domains shown)
VH: B1 VH
VL: B1 VL with I92V, F96Y, V97T
B19: 鼠源抗LAG3抗体 mL42 (antibody, V domains shown)
VH: EVQLQQSGAELVRPGASVKLSCKALGYTFTDYEVHWLKQTPVRGLEWIGAIHPGSGGAAYNQKVKGKATLTADKSSSTAYMELSVLTSEDSAVYYCTSYGWNDWGQGTTLTVSS
VL: DILMNQSHKFMSTSVGDRVSIACKASQDVSTAVAWYQQKPGQSPKLLISWASTRHTGVPDRFAGSGSGTDFTLTINNVQSEDLADYFCQQYSSYPYTFGGGTKLELER
notes: detected with anti-human IgG secondary antibodies
B20: 人源化抗体 hmL42 (antibody, V domains shown)
VH: B1 VH
VL: B1 VL with I92S, D93S, F94Y, F96Y, V97T

The text below walks through data of patent publication CN113307874A (GUANGZHOU EXCELMAB BIOMEDICAL TECH CO LTD, dated 2021).

Changes are numbered by the printed parent chain.

For one assay, the target named is T1, 人LAG3抗原 (ACRO, Cat.LA3-H5222) (human, UniProt P18627 23-450).
T1 construct: Bought protein; also called human LAG3 antigen
T1 sequence (looked up): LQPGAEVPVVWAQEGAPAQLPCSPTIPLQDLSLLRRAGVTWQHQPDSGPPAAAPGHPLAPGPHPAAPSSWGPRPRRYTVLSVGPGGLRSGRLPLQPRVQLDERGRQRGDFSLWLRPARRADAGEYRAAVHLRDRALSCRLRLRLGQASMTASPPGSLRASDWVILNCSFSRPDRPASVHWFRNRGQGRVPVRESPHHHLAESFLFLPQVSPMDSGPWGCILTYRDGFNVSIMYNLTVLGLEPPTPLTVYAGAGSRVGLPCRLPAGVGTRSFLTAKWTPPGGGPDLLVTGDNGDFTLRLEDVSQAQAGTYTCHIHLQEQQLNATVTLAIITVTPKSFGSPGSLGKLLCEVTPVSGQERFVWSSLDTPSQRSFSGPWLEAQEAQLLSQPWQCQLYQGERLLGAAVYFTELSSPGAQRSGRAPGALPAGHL
Briefly: indirect ELISA, coated human LAG3. For orientation: ELISA stands for enzyme-linked immunosorbent assay.
On to B1, for which the EC50 was found to be 0.175 µg/mL.

Molecule B2 came in with a concentration for a half-maximal effect (EC50) of 0.16 µg/mL. The EC50 values of the last two molecules are within 1.5-fold of each other. Take B3: the concentration giving a half-maximal response (EC50) was determined as 0.112 µg/mL. The molecule B4 yielded a concentration for a half-maximal effect (EC50) of 0.202 µg/mL. The same measure, in the same setting: under B5 stands 0.119 µg/mL; under B6, 0.216 µg/mL.

In the case of B7, the EC50 is 0.132 µg/mL. As for B8, the midpoint of the response, the EC50, lay at 0.244 µg/mL.

Take B9: a half-maximal response (EC50) required 0.147 µg/mL. For B10, the EC50 stood at 0.138 µg/mL.

In the case of B11, the EC50 came out at 0.221 µg/mL. For B12, the EC50 came out at 0.204 µg/mL. On to B13, for which the EC50 turned out to be 0.437 µg/mL. For B14, a half-maximal effect (EC50) was put at 0.382 µg/mL.

For B15, the response was half-maximal at 0.206 µg/mL (EC50).

With B16, the response was half-maximal at 0.248 µg/mL (EC50). On the same count and under the same terms, to B17 belongs 0.184 µg/mL; to B18, 0.183 µg/mL.

The target in another assay is T1, 人LAG3抗原 (ACRO, Cat.LA3-H5222). As to the kind of experiment: indirect ELISA, coated human LAG3. This is another data set of the same source.
With B19, the binding result is recorded as “binds”. For B20, the binding result is “binds”.

The target of the next assay is T2, 过表达人LAG3抗原的Jurkat/LAG3细胞表面的人LAG3 (human, UniProt P18627 23-525).
T2 construct: whole, on cells; also called 过表达人LAG3的Jurkat细胞
T2 sequence (looked up): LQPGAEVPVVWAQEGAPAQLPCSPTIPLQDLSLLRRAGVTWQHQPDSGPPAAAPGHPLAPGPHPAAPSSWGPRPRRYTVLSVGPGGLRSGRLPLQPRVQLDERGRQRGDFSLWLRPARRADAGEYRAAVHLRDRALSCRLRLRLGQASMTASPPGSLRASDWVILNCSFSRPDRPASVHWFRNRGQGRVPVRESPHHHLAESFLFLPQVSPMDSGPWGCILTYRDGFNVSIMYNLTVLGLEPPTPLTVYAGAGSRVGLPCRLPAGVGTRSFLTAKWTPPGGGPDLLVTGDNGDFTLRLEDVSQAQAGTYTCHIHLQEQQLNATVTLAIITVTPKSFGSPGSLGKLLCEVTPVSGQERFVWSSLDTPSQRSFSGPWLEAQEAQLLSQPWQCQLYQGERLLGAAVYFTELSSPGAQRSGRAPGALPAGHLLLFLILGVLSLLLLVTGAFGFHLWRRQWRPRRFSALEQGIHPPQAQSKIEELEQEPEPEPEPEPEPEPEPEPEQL
As to the kind of experiment: indirect flow cytometry on Jurkat/LAG3 cells. A general note: A flow cytometer gives signals particle by particle.
Turning to B19, the binding result is “binds”. Same read-out and setting: under B20 stands “binds”.

In general, EC50 refers to the concentration giving half of the maximal effect. Read a low EC50 as greater potency.
